Where no end group is shown, it is not given here.
Assays:
[1] = system: MCF7 breast cancer cells; assay: Xcelligence cell proliferation of stable MCF7 clones; type: cell-based; settings: clone D2CC3, MCF7, FIG. 13
Procedure: Stable clones of MCF7 breast cancer cells expressing moderate levels of GFP-D2N (clones D2N6 and D2N8), GFP-D2C (clone D2C6 and a pool of positive cells) and GFP-D2CC (clone Cl3) have been selected in G418 (1 mg/ml)-containing medium for 4 weeks. Detectable expression of a single polypeptide of expected molecular weight in each case was confirmed by western blotting using anti-GFP antibodies.
Cell proliferation was measured using the Xcelligence technology (Roche). Briefly, cell clones were seeded at 15000 cells/well on 96 wells containing gold electrodes and cellular impedance was monitored in real-time for 40 hours.

[2] = system: microtubule cytoskeleton; assay: Immunofluorescence intracellular localization in RPE1 cells; type: cell-based, Human; settings: RPE1 cells transfected 24 hrs, data not shown
Procedure: Immunofluorescence study was performed as example 2. Briefly, Human retinal pigment epithelial (RPE1) cells were transfected for 24 hrs with GFP-D2N, GFP-D2C or GFP-D2CC constructs prior to fixation in ice-cold methanol and incubation with anti-GFP antibodies as described (page 21, lines 1-9).

[3] = system: microtubule cytoskeleton; assay: Immunofluorescence localization in transfected MCF-7 cells; type: cell-based, human; settings: MCF-7 cells transiently transfected 24 h, data not shown
Procedure: (§1) The pEGFP-ATIP3BD plasmid was transiently transfected into human breast cancer MCF-7 cells. Localization of GFP-ATIP3BD fusion protein at the microtubule cytoskeleton was examined by immunofluorescence, and its ability to interact with stabilized microtubules was determined by co-sedimentation assay.
Exponentially growing human breast cancer MCF-7 cells plated on coverslips were transiently transfected (24 h) with pEGFP-ATIP3BD plasmid, and fixed in ice-cold methanol for 5 min prior to incubation for 1 h at room temperature with primary antibodies: anti-GFP monoclonal antibodies (Roche, diluted 1:200) and human anti-alpha-tubulin antibodies clone F2C (diluted 1:10), as described in Rodrigues-Ferreira et al. (PLoS One. 2009; 4(10):e7239 2009). After extensive washing, cells were incubated for 30 min at room temperature with appropriate secondary Cy-2-conjugated anti-human and/or Cy-3-conjugated anti-mouse antibodies (Jackson Laboratories, Interchim, France) diluted 1:500. Coverslips were mounted on glass slides using Glycergel Mounting Medium (DakoCytomation) and examined with a Leica TCS SP2 AOBS confocal microscope using appropriate filters. Image analysis was performed with NIH ImageJ software.

[4] = system: human breast cancer MCF-7 cells; assay: Clonogenicity experiments; type: cell-based; settings: MCF-7 transfected with GFP fusion, G418 selection 3 weeks, compared to GFP
Procedure: For clonogenicity experiments, human breast cancer MCF-7 cells were transfected for 24 h with […] pEGFP-C1 vector or 2 μg of pEGFP-ATIP3BD cDNA. Similar transfection efficiency (50%) was assessed by FACS analysis and cell viability was verified using trypan blue. Cells were then plated at various dilutions in 12 well plates and transfectants were selected by adding geneticin (G418, 1 mg/ml, Gibco) in fresh medium twice a week for 3 weeks. Resistant colonies were stained with 0.5% crystal violet (Sigma) and counted.
The ability of human MCF7 breast cancer cells to form colonies following expression of minimal domains D2N and D2C was analyzed by clonogenicity experiments as described before (see example 2).

[5] = system: stabilized microtubules; assay: Microtubule co-sedimentation assay; type: binding, human; settings: MCF-7 lysate, taxol 20 μM, data not shown
Procedure: as §1
For microtubule cosedimentation assay, human breast cancer MCF-7 cells were transiently transfected (24 h) with pEGFP-ATIP3BD plasmid and incubated for 20 min at 4° C. in PEM buffer (100 mM PIPES, pH 6.9, 1 mM MgSO4, 1 mM EGTA), scraped and sonicated prior to centrifugation at 15000 rpm for 10 min, 4° C. Clarified samples were incubated with taxol (20 μM) in the presence of GTP (1 mM) and DTT (1 mM) for 45 min at 37° C. and were spun at 70 000 g for 30 min at 30° C. through a cushion buffer containing 40% glycerol, 20 μM taxol and 1 mM GTP. The supernatant (S) and pellet (P) fractions were collected separately and subsequently immunoblotted with anti-GFP (Roche) and anti-alpha-tubulin (Sigma) antibodies.

In the case of “D2CC: domain of ATIP3BD, amino-acid positions 817-874 of SEQ ID NO: 1, 58 amino-acids polypeptide, expressed as GFP fusion (SGNAAVIKYEEKPPKPAFQNGSSGSFYLKPLVSRAHVHLMKTPPKGPSRKNLFTALNA; also: expressed as GFP fusion; listed as Homo sapiens)”, the “factor of reduction of proliferation as compared to clone expressing GFP-ATIP3” value [1] is reported as 2 and the intracellular localization [2] is reported as “remains diffuse in the cytosol”.

B1: ATIP3BD: basic central domain of ATIP3, residues 410-874 of SEQ ID NO: 1, expressed as GFP fusion (protein, listed as Homo sapiens)
chain: GLTWDANDMVISTDKTMCMSTPVLEPTKVTFSVSPIEATEKCKKVEKGNRGLKNIPDSKEAPVNLCKPSLGKSTIKTNTPIGCKVRKTEIISYPRPNFKNVKAKVMSRAVLQPKDAALSKVTPRPQQTSASSPSSVNSRQQTVLSRTPRSDLNADKKAEILINKTHKQQFNKLITSQAVHVTTHSKNASHRVPRTTSAVKSNQEDVDKASSSNSACETGSVSALFQKIKGILPVKMESAECLEMTYVPNIDRISPEKKGEKENGTSMEKQELKQEIMNETFEYGSLFLGSASKTTTTSGRNISKPDSCGLRQIAAPKAKVGPPVSCLRRNSDNRNPSADRAVSPQRIRRVSSSGKPTSLKTAQSSWVNLPRPLPKSKASLKSPALRRTGSTPSIASTHSELSTYSNNSGNAAVIKYEEKPPKPAFQNGSSGSFYLKPLVSRAHVHLMKTPPKGPSRKNLFTALNA
modifications: GFP fusion; (1)..(409) acidic N-terminal region
With B1 the “localization of GFP fusion protein at the microtubule cytoskeleton” value [3] was “localizes at the microtubule cytoskeleton”, the “cell proliferation / number of G418-resistant colonies” value [4] was “mimic the inhibitory effects of the entire ATIP3a and ATIP3b proteins” and the “co-sedimentation with stabilized microtubules” value [5] was “co-sediments with stabilized microtubules”.

— US20130345145A1, “ATIP3 AND BIOLOGICALLY ACTIVE FRAGMENTS THEREOF FOR USE IN THE TREATMENT OF CANCER” (INSTITUT NATIONAL DE LA SANTE ET DE LA RECHERCHE MEDICALE …, priority 2011, published 2013)
